Literature values, collected in US20060160174A1, “Modified l49-sfv exhibiting increased stability and methods of use thereof” (priority 2002, published 2006).

Assays:
[1] = cited from earlier work
[2] = target: T1, p97 (Homo sapiens, UniProt P08582); settings: parental molecule expressed in the E. coli periplasm; cited from earlier work
T1 sequence (P08582 20-709): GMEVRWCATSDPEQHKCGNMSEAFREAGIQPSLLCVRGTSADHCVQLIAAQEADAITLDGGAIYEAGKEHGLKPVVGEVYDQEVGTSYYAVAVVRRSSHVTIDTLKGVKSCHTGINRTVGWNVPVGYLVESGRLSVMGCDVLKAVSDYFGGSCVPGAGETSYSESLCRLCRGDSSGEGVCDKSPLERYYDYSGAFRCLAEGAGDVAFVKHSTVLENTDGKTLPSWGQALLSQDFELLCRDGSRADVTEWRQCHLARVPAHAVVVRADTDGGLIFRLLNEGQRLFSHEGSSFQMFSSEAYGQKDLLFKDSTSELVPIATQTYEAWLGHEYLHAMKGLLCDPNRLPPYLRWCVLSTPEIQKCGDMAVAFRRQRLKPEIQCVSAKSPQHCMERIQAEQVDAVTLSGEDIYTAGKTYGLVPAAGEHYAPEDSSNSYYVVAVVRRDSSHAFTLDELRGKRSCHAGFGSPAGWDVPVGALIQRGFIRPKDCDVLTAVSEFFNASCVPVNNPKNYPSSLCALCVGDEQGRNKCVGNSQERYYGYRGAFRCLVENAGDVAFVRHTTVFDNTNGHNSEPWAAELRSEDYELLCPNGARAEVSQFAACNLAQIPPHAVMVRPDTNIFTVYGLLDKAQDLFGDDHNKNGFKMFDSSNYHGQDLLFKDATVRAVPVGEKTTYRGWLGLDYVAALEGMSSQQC

B1: L49-sFv-bL: parental L49 single-chain Fv fused to Enterobacter cloacae β-lactamase, solubly expressed in the E. coli periplasm (Siemers et al., 1997) (protein)
scFv: MEVQLQESGPSLVKPSQTLSLTCSVTGDSITSGYWNWIRKFPGNKLEYMGYISDSGITYYNPSLKSRISITRDTSKNQYYLQLNFVTAEDTATYNCARRTLATYYAMDYWGQGTSVTVSSGSTSGSGKPGSGEGSTKGDFVMTQTPLSLPVSLGDQASISCRASQSLVHSNGNTYLHWYLQKPGQSPKLLIYRVSNRFSGVPDRFSGSGSGTDFTLKISRVEAEDLGVYFCSQSTHVPPTFGGGTKLEIKRTPVSEKQLAEVVANTITPLMKAQSVPGMAVAVIYQGKPHYYTFGKADIAANKPVTPQTLFELGSISKTFTGVLGGDAIARGEISLDDAVTRYWPQLTGKQWQGIRMLDLATYTAGGLPLQVPDEVTDNASLLRFYQNWQPQWKPGTTRLYANASIGLFGALAVKPSGMPYEQAMTTRVLKPLKLDHTWINVPKAEEAHYAWGYRDGKAVRVSPGMLDAQAYGVKTNVQDMANWVMANMAPENVADASLKQGIALAQSRYWRIGSMYQGLGWEMLNWPVEANTVVETSFGNVALAPLPVAEVNPPAPPVKASWVHKTGSTGGFGSYVAFIPEKQIGIVMLANTSYPNPARVEAAYHILEALQ
[1]; 24-48 hours after the fusion protein was administered
  tumor to blood ratio: 141-150 :1
[1]; clearance from systemic circulation
  terminal half-life t1/2β: 2.5 h
[2]
  Kd: 1 nM
